Data as given in US6352723B1, “Brain-derived alkali-soluble immunoregulatory composition” (priority 1999, dated 2002).
Values joined by “and” are separate entries in the source; they are usually repeats but may differ in a detail not shown here. Equal entries are not always repeated.

Tested on: lymphocytes
Test: Proliferation assay for stimulated lymphocytes (tritiated thymidine incorporation; % suppression, SI)
Type: cell-based, mice
Conditions: for SI (stimulation index): stimulant alone: OVA 500 μg/ml, PPD 25 μg/ml, ConA 2.5 μg/ml, LPS 10 μg/ml, ionomycin 100 ng/ml with 1 ng/ml PMA

## Concanavalin A [ConA, reference compound]
  SI (stimulation index): 31.2 ± 32.7

## ionomycin at 100 ng/ml with 1 ng/ml phorbol 12-myristate 13 acetate (PMA) [Ionomycin/PMA, reference compound]
  SI (stimulation index): 23.6 ± 11.2

B1: chicken ovalbumin (protein, UniProt P01012 2-386, looked up)
Ovalbumin: GSIGAASMEFCFDVFKELKVHHANENIFYCPIAIMSALAMVYLGAKDSTRTQINKVVRFDKLPGFGDSIEAQCGTSVNVHSSLRDILNQITKPNDVYSFSLASRLYAEERYPILPEYLQCVKELYRGGLEPINFQTAADQARELINSWVESQTNGIIRNVLQPSSVDSQTAMVLVNAIVFKGLWEKAFKDEDTQAMPFRVTEQESKPVQMMYQIGLFRVASMASEKMKILELPFASGTMSMLVLLPDEVSGLEQLESIINFEKLTEWTSSNVMEERKIKVYLPRMKMEEKYNLTSVLMAMGITDVFSSSANLSGISSAESLKISQAVHAAHAEINEAGREVVGSAEAGVDAASVSEEFRADHPFLFCIKHIATNAVLFFGRCVSP
notes: Stimulating antigen
Homogenate removed by centrifugation and 0.2μ filter, n=4
  SI for chicken ovalbumin incubated with brain homogenate: 4.8±1.8
Incubated without brain homogenate, n=4
  SI for chicken ovalbumin incubated alone: 4.1±0.9
  SI (stimulation index): 8.8 ± 5.8 and 7.9 ± 4.2
